Key:
[1] = target: αvβ3 integrin on human lung fibroblasts (human) (UniProt P06756); assay: cell-based or functional assay
[2] = target: α5β1 integrin on human lung fibroblasts (human) (UniProt P08648); assay: cell-based or functional assay
Sequence of UniProt P08648 (P08648 42-1049, chain 1 of 2): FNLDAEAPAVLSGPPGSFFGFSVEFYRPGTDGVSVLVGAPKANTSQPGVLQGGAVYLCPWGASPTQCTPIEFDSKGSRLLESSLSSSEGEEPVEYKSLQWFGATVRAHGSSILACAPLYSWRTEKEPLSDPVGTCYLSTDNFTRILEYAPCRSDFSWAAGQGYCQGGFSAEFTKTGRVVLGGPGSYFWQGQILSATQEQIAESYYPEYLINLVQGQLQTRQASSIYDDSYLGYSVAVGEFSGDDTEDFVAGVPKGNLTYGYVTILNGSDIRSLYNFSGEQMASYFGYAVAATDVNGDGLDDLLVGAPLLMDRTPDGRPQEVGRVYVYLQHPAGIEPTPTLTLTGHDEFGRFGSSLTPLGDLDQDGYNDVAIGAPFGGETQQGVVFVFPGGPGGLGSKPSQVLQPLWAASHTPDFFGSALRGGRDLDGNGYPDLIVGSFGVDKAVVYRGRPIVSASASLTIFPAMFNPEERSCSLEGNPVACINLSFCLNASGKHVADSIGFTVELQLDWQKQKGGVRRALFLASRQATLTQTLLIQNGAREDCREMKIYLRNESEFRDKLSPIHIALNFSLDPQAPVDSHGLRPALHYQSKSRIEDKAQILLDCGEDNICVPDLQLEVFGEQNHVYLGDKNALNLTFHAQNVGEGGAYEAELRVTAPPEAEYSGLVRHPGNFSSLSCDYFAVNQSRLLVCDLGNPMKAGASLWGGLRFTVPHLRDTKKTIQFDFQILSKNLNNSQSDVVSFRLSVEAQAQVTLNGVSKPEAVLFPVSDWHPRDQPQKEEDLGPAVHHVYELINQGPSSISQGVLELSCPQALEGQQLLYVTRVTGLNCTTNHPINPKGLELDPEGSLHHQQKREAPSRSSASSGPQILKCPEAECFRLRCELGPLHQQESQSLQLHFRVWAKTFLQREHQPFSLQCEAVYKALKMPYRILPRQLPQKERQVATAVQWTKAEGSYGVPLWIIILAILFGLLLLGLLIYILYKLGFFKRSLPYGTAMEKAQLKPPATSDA
Sequence of UniProt P08648 (P05556 21-798, chain 2 of 2, further chain): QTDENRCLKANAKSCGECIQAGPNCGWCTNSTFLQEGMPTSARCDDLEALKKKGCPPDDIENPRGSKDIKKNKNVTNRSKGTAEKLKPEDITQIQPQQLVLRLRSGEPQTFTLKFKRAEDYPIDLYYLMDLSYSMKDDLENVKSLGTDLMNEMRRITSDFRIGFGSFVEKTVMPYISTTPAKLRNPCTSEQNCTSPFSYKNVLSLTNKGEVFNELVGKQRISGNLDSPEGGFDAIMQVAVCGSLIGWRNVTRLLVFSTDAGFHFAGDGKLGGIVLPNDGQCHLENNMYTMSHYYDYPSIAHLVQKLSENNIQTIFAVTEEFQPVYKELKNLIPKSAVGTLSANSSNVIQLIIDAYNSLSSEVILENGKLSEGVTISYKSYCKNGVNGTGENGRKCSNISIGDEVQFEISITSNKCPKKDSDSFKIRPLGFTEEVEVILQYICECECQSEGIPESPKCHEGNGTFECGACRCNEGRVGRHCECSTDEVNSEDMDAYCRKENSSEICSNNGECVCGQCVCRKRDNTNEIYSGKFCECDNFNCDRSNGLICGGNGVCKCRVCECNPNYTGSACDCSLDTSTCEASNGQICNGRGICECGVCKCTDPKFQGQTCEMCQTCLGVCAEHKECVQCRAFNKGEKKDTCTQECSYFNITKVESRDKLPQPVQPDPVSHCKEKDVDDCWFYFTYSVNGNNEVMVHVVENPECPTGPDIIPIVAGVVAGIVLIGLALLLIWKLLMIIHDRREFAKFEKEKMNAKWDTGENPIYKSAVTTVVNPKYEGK

Sequence of UniProt P06756 (P06756 31-1048, chain 1 of 2): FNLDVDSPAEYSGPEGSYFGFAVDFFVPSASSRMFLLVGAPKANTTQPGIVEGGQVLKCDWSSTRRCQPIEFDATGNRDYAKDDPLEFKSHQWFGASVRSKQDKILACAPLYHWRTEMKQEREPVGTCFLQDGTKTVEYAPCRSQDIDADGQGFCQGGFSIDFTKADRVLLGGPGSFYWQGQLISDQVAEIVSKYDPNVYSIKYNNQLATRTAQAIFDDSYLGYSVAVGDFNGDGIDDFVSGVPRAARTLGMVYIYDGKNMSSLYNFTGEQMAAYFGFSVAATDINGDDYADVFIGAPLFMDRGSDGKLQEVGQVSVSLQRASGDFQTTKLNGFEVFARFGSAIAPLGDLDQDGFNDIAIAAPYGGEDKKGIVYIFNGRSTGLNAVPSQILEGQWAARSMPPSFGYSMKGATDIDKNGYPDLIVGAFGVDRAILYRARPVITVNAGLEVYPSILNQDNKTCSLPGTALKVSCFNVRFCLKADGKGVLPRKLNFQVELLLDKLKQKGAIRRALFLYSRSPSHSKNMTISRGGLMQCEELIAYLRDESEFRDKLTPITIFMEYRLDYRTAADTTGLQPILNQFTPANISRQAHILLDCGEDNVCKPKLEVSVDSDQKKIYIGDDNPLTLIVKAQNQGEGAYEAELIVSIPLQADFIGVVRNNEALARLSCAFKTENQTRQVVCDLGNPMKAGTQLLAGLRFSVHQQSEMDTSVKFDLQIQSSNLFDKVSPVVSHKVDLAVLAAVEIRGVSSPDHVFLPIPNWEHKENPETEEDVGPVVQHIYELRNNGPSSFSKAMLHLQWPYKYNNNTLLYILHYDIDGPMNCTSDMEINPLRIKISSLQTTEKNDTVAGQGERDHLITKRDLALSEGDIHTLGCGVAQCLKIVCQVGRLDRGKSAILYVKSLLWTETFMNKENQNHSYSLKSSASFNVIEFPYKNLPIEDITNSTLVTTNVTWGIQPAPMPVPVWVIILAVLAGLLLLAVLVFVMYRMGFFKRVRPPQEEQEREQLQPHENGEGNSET
Sequence of UniProt P06756 (P05106 27-788, chain 2 of 2, further chain): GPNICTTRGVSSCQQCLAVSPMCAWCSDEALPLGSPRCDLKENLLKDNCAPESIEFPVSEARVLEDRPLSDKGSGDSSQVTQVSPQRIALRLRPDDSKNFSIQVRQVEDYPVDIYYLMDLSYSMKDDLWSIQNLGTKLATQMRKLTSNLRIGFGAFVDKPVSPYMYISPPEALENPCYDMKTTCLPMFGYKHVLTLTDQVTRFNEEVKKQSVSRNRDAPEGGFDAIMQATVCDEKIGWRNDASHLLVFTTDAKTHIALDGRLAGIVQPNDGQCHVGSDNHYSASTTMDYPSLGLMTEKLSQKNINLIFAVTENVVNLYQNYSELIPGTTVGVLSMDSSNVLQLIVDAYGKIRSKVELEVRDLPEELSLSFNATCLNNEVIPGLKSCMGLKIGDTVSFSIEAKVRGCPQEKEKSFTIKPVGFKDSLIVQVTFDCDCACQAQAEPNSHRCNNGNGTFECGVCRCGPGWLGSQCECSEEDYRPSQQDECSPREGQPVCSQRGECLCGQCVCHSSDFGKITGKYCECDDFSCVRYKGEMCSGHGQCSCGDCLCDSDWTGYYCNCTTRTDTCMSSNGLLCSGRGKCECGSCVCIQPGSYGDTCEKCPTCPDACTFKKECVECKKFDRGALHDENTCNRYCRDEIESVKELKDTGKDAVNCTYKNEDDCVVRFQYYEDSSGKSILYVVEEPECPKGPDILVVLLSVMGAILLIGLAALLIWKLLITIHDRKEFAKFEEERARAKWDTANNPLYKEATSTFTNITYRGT

Row | Substance | fibroblast spread area on soft elastic Fn4G hydrogels (3 days) [1] | average fibroblast spread area on Fn9*10 hydrogels (all stiffness and viscoelasticity groups, 3 days) [2]
1 | Fn4G (recombinant fibronectin fragment of FnIII9 and FnIII10 with four glycine residues inserted in the linker region between them) (ligand) | 2060 µm^2 | –
2 | Fn9*10 (recombinant fibronectin fragment of FnIII9 and FnIII10 with a leucine to proline point mutation at position 1408) (ligand) | – | 780 µm^2

— patent publication US20240157023A1
